± gives the uncertainty stated by the source.

First the molecules themselves.
B1: Gamma-crystallin C, residues 91 to 170; numbered along this chain, P07315 (parent)
chain: RLYEREDHKGLMMELSEDCPSIQDRFHLSEIRSLHVLEGCWVLYELPNYRGRQYLLRPQEYRRCQDWGAMDAKAGSLRRV
B2: Far upstream element-binding protein 1, residues 98 to 169; numbered along this chain, Q96AE4 (parent)
chain: RSVMTEEYKVPDGMVGFIIGRGGEQISRIQQESGCKIQIAPDSGGLPERSCMLTGTPESVQSAKRLLDQIVE

In one series the parent is B1. The series is described as follows: abundance fitness (aPCA) (normalised: wild type 0, dead -1); higher = more abundant; growth selection in yeast, the domain comes from the species named. Conditions: Homo sapiens.
As to E14Y, the abundance fitness is -0.04 ± 0.17.

Turning to E14P, the abundance fitness was -0.269 ± 0.074.

As to E14Q, the abundance fitness was -0.227 ± 0.082.

For the variant E14A, the abundance fitness is -0.15 ± 0.08.

On to E14T, for which the abundance fitness was -0.169 ± 0.091.

Turning to E14R, the abundance fitness was -0.397 ± 0.092.

On to E4W, for which the abundance fitness was -0.78 ± 0.19.

For E4Y, the abundance fitness is -0.7 ± 0.25.

With E4T, the abundance fitness is -0.123 ± 0.094.

Regarding E4N, the abundance fitness is -0.261 ± 0.12.

On to E4P, for which the abundance fitness is -0.341 ± 0.11.

Regarding E4D, the abundance fitness was -0.153 ± 0.098.

E4C: the abundance fitness was -0.291 ± 0.13.

Consider E4M, for which the abundance fitness was -0.019 ± 0.26.

Consider E4H, for which the abundance fitness is -0.571 ± 0.15.

In the case of E4K, the abundance fitness is -0.375 ± 0.14.

For E4R, the abundance fitness is -0.582 ± 0.1.

With E4L, the abundance fitness is -0.339 ± 0.083.

As to E4A, the abundance fitness was -0.129 ± 0.063.

With E4F, the abundance fitness was -0.347 ± 0.2.

Regarding E4I, the abundance fitness was -0.746 ± 0.22.

For E4G, the abundance fitness was -0.348 ± 0.063.

For E4S, the abundance fitness was -0.027 ± 0.057.

For R1G, the abundance fitness was -0.879 ± 0.15.

Turning to R1S, the abundance fitness was -0.936 ± 0.17.

For R1K, the abundance fitness is -0.072 ± 0.21.

For the variant R1W, the abundance fitness is -0.404 ± 0.27.

Take R1V: the abundance fitness was -0.381 ± 0.17.

On to R1T, for which the abundance fitness is -0.314 ± 0.17.

Turning to R1D, the abundance fitness is -0.857 ± 0.34.

As to R1E, the abundance fitness is -0.756 ± 0.22.

As for R1I, the abundance fitness amounted to 0.241 ± 0.42.

Turning to E6G, the abundance fitness was -0.803 ± 0.1.

Turning to E6A, the abundance fitness was -0.284 ± 0.082.

In the case of E6W, the abundance fitness was -0.718 ± 0.15.

As to E6N, the abundance fitness is -0.416 ± 0.43.

On to E6V, for which the abundance fitness is -0.53 ± 0.15.

With E6M, the abundance fitness is -0.698 ± 0.48.

In the case of E6D, the abundance fitness was -0.538 ± 0.19.

With E6Y, the abundance fitness is -0.64 ± 0.41.

For E6L, the abundance fitness is -0.892 ± 0.32.

In the case of E6R, the abundance fitness is -0.642 ± 0.096.

As to E6Q, the abundance fitness was -0.445 ± 0.41.

For E6T, the abundance fitness was -0.362 ± 0.21.

On to L15A, for which the abundance fitness was -0.477 ± 0.1.

As to L15C, the abundance fitness is -0.09 ± 0.081.

As to G10F, the abundance fitness was -0.717 ± 0.17.

As for G10L, the abundance fitness is -1.06 ± 0.17.

Take G10R: the abundance fitness was -0.931 ± 0.14.

In the case of G10P, the abundance fitness was -0.951 ± 0.35.

With G10Y, the abundance fitness was -0.623 ± 0.41.

On to G10H, for which the abundance fitness was -0.818 ± 0.19.

For the variant G10S, the abundance fitness was -0.923 ± 0.15.

As to G10A, the abundance fitness was -0.976 ± 0.12.

In the case of G10Q, the abundance fitness was -0.775 ± 0.21.

On to G10T, for which the abundance fitness is -1.01 ± 0.49.

On to G10N, for which the abundance fitness is -0.655 ± 0.36.

With G10C, the abundance fitness was -0.905 ± 0.22.

Take G10D: the abundance fitness was -0.731 ± 0.14.

As to G10V, the abundance fitness was -0.821 ± 0.11.

In the case of L11V, the abundance fitness is -0.059 ± 0.055.

Turning to L11D, the abundance fitness was -0.248 ± 0.092.

For the variant L11T, the abundance fitness was -0.049 ± 0.082.

Regarding L11I, the abundance fitness was -0.116 ± 0.1.

Consider L11P, for which the abundance fitness is -0.004 ± 0.089.

Take L11R: the abundance fitness is -0.031 ± 0.049.

Turning to L11W, the abundance fitness was -0.289 ± 0.067.

For L11M, the abundance fitness was -0.017 ± 0.089.

Turning to L11A, the abundance fitness is -0.13 ± 0.042.

For the variant L11G, the abundance fitness was -0.092 ± 0.057.

Consider L11H, for which the abundance fitness is -0.144 ± 0.1.

Regarding L11N, the abundance fitness turned out to be 0.018 ± 0.12.

As to L11F, the abundance fitness is -0.017 ± 0.091.

On to L11C, for which the abundance fitness is -0.08 ± 0.095.

As to L11Q, the abundance fitness was -0.127 ± 0.1.

L11E: the abundance fitness was 0 ± 0.11.

In the case of L11S, the abundance fitness was -0.089 ± 0.051.

The variants in another series derive from B2. The description is as above. Conditions: Homo sapiens.
As for RSVMTEEYKVPDGMVGFIIGRGGEQISRIQQESGCKIQIAPDSGGLPERSCMLTGTPESVQSAKRLLDQIVH [E72H], the abundance fitness was -0.007 ± 0.053.

On to RSVMTEEYKVPDGMVGFIIGRGGEQISRIQQESGCKIQIAPDSGGLPERSCMLTGTPESVQSAKRLLDQIVD [E72D], for which the abundance fitness was -0.048 ± 0.042.

Take RSVMTEEYKVPDGMVGFIIGRGGEQISRIQQESGCKIQIAPDSGGLPERSCMLTGTPESVQSAKRLLDQIVK [E72K]: the abundance fitness was -0.129 ± 0.043.

As for RSVMTEEYKVPDGMVGFIIGRGGEQISRIQQESGCKIQIAPDSGGLPERSCMLTGTPESVQSAKRLLDQIVM [E72M], the abundance fitness is -0.01 ± 0.052.

For the variant RSVMTEEYKVPDGMVGFIIGRGGEQISRIQQESGCKIQIAPDSGGLPERSCMLTGTPESVQSAKRLLDQIVF [E72F], the abundance fitness was -0.111 ± 0.064.

As to RSVMTEEYKVPDGMVGFIIGRGGEQISRIQQESGCKIQIAPDSGGLPERSCMLTGTPESVQSAKRLLDQIVS [E72S], the abundance fitness came out at 0.012 ± 0.035.

For the variant RSVMTEEYKVPDGMVGFIIGRGGEQISRIQQESGCKIQIAPDSGGLPERSCMLTGTPESVQSAKRLLDQIVY [E72Y], the abundance fitness is -0.01 ± 0.065.

Take RSVMTEEYKVPDGMVGFIIGRGGEQISRIQQESGCKIQIAPDSGGLPERSCMLTGTPESVQSAKRLLDQIVV [E72V]: the abundance fitness is 0.051 ± 0.038.

As for RSVMTEEYKVPDGMVGFIIGRGGEQISRIQQESGCKIQIAPDSGGLPERSCMLTGTPESVQSAKRLLDQIVN [E72N], the abundance fitness was -0.11 ± 0.053.

In the case of RSVMTEEYKVPDGMVGFIIGRGGEQISRIQQESGCKIQIAPDSGGLPERSCMLTGTPESVQSAKRLLDQIVP [E72P], the abundance fitness is -0.065 ± 0.042.

Regarding RSVMTEEYKVPDGMVGFIIGRGGEQISRIQQESGCKIQIAPDSGGLPERSCMLTGTPESVQSAKRLLDQIVC [E72C], the abundance fitness is -0.034 ± 0.046.

As to RSVMTEEYKVPDGMVGFIIGRGGEQISRIQQESGCKIQIAPDSGGLPERSCMLTGTPESVQSAKRLLDQIVA [E72A], the abundance fitness is 0.04 ± 0.034.

Take RSVMTEEYKVPDGMVGFIIGRGGEQISRIQQESGCKIQIAPDSGGLPERSCMLTGTPESVQSAKRLLDQIVT [E72T]: the abundance fitness was 0.05 ± 0.036.

In the case of RSVMTEEYKVPDGMVGFIIGRGGEQISRIQQESGCKIQIAPDSGGLPERSCMLTGTPESVQSAKRLLDQIVG [E72G], the abundance fitness is 0.024 ± 0.029.

As to RSVMTEEYKVPDGMVGFIIGRGGEQISRIQQESGCKIQIAPDSGGLPERSCMLTGTPESVQSAKRLLDQIVW [E72W], the abundance fitness was -0.008 ± 0.037.

Take RSVMTEEYKVPDGMVGFIIGRGGEQISRIQQESGCKIQIAPDSGGLPERSCMLTGTPESVQSAKRLLDQITE [V71T]: the abundance fitness was -0.083 ± 0.029.

As for RSVMTEEYKVPDGMVGFIIGRGGEQISRIQQESGCKIQIAPDSGGLPERSCMLTGTPESVQSAKRLLDQIQE [V71Q], the abundance fitness is -0.008 ± 0.036.

With RSVMTEEYKVPDGMVGFIIGRGGEQISRIQQESGCKIQIAPDSGGLPERSCMLTGTPESVQSAKRLLDQIIE [V71I], the abundance fitness is -0.077 ± 0.039.

In the case of RSVMTEEYKVPDGMVGFIIGRGGEQISRIQQESGCKIQIAPDSGGLPERSCMLTGTPESVQSAKRLLDQIDE [V71D], the abundance fitness is -0.114 ± 0.038.

Take RSVMTEEYKVPDGMVGFIIGRGGEQISRIQQESGCKIQIAPDSGGLPERSCMLTGTPESVQSAKRLLDQIGE [V71G]: the abundance fitness is -0.061 ± 0.024.

RSVMTEEYKVPDGMVGFIIGRGGEQISRIQQESGCKIQIAPDSGGLPERSCMLTGTPESVQSAKRLLDQIRE [V71R]: the abundance fitness is -0.046 ± 0.024.

As for RSVMTEEYKVPDGMVGFIIGRGGEQISRIQQESGCKIQIAPDSGGLPERSCMLTGTPESVQSAKRLLDQIWE [V71W], the abundance fitness was -0.094 ± 0.032.

RSVMTEEYKVPDGMVGFIIGRGGEQISRIQQESGCKIQIAPDSGGLPERSCMLTGTPESVQSAKRLLDQIEE [V71E]: the abundance fitness is -0.089 ± 0.031.

As for RSVMTEEYKVPDGMVGFIIGRGGEQISRIQQESGCKIQIAPDSGGLPERSCMLTGTPESVQSAKRLLDQISE [V71S], the abundance fitness is -0.074 ± 0.027.

For the variant RSVMTEEYKVPDGMVGFIIGRGGEQISRIQQESGCKIQIAPDSGGLPERSCMLTGTPESVQSAKRLLDQIKE [V71K], the abundance fitness was -0.031 ± 0.036.

As for RSVMTEEYKVPDGMVGFIIGRGGEQISRIQQESGCKIQIAPDSGGLPERSCMLTGTPESVQSAKRLLDQIFE [V71F], the abundance fitness is -0.065 ± 0.041.

For the variant RSVMTEEYKVPDGMVGFIIGRGGEQISRIQQESGCKIQIAPDSGGLPERSCMLTGTPESVQSAKRLLDQIAE [V71A], the abundance fitness is -0.036 ± 0.029.

With RSVMTEEYKVPDGMVGFIIGRGGEQISRIQQESGCKIQIAPDSGGLPERSCMLTGTPESVQSAKRLLDQINE [V71N], the abundance fitness was -0.087 ± 0.044.

Consider RSVMTEEYKVPDGMVGFIIGRGGEQISRIQQESGCKIQIAPDSGGLPERSCMLTGTPESVQSAKRLLDQIPE [V71P], for which the abundance fitness was -0.047 ± 0.035.

Turning to RSVMTEEYKVPDGMVGFIIGRGGEQISRIQQESGCKIQIAPDSGGLPERSCMLTGTPESVQSAKRLLDQICE [V71C], the abundance fitness is -0.044 ± 0.037.

Take RSVMTEEYKVPDGMVGFIIGRGGEQISRIQQESGCKIQIAPDSGGLPERSCMLTGTPESVQSAKRLLDQIHE [V71H]: the abundance fitness is -0.128 ± 0.043.

Turning to RSVMTEEYKVPDGMVGFIIGRGGEQISRIQQESGCKIQIAPDSGGLPERSCMLTGTPESVQSAKRLLDQIYE [V71Y], the abundance fitness is -0.183 ± 0.042.

Consider RSVMTEEYKVPDGMVGFIIGRGGEQISRIQQESGCKIQIAPDSGGLPERSCMLTGTPESVQSAKRLLDQIME [V71M], for which the abundance fitness was -0.088 ± 0.038.
